Assay results reported in publication PMC7244311.

Target: talin R3 IVVI domain in the (R3)-(I91)8 construct (mouse)
Assay: magnetic tweezers force spectroscopy

concentration at half the maximum binding velocity, 9 pN: 90 nM
stoichiometry N: 2
Substance: vinculin head (domain or fragment)
